IntAct's records for PubMed 10869553

B1: Protein S100-A4 (Mus musculus), P07091 (parent)
chain: MARPLEEALDVIVSTFHKYSGKEGDKFKLNKTELKELLTRELPSFLGKRTDEAAFQKVMSNLDSNRDNEVDFQEYCVFLSCIAMMCNEFFEGCPDKEPRKK
partner: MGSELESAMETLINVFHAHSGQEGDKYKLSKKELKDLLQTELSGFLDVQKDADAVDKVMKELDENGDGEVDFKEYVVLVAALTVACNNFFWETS

Variants of: B1
Conditions: with S100a1, P56565

Variant | effect of a mutation on the interaction
F72A | disrupting interaction
